Measured values as given in US20160060347A1 (MorphoSys, published 2016).

T1: human CXCR2 (human, UniProt P25025 1-360)
T1 construct: Expressed on Flp-In CHO cells (FACS, Fab-ZAP, ADCC, CDC) or on bought PathHunter CHO cells (beta-arrestin assay); the construct in the PathHunter cells is not described; also called chemokine receptor CXCR2; CXCR2 CHO Flp-In cells
T1 sequence: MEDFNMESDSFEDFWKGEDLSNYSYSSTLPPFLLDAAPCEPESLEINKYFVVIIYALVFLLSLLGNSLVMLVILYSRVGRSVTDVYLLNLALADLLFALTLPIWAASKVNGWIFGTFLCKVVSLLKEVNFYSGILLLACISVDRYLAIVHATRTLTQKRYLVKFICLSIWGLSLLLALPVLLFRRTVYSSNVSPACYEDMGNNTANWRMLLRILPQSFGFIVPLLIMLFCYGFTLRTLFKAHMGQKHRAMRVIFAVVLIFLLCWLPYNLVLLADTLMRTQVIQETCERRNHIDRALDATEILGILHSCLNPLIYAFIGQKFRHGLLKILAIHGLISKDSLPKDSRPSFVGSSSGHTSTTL

B1: CX2-Mab #1 (IgG1 format) (antibody, V domains shown)
VH: QVQLVQSGAEVKKPGSSVKVSCKASGGTFSSYAISWVRQAPGQGLEWMGGIIPIVGEAKYAQKFQGRVTITADESTSTAYMELSSLRSEDTAVYYCARDSSGYDGYYAFAYWGQGTQVTVSS
VL: DIVLTQPPSVSGAPGQRGTISCSGSSSNIGSSSVNWYQQLPGTAPKLLIYRNNQRPSGVPDRFSGSKSGTSASLAITGLQAEDEADYYCGATDFSANQVVFGGGTKLTVLG
notes: Fab converted into IgG1 format, expressed in a human cell line, protein A purified; also called parental
B2: CX2-Mab #2 (IgG1 format) (antibody, V domains shown)
VH: QVQLVQSGAEVKKPGASVKVSCKASGYTFSRYAMHWVRQAPGQGLEWMGVINPYNGNTRYAQKFQGRVTMTRDTSISTAYMELSRLRSEDTAVYYCARGSHIQAGAFDYWGQGTLVTVSS
VL: DIQMTQSPSSLSASVGDRVTITCRASQGINNRLNWYQQKPGKAPKLLIYDGSSLQSGVPSRFSGSGSGTDFTLTISSLQPEDFATYYCQQYIHFPVTFGQGTKVEIKR
notes: Fab converted into IgG1 format, expressed in a human cell line, protein A purified
B3: CX2-Mab #3 (IgG1 format) (antibody, V domains shown)
VH: EVQLLESGGGLVQPGGSLRLSCAASGFTFSSYWMSWVRQAPGKGLEWVSVISYSGSETFYADSVKGRFTISRDNSKNTLYLQMNSLRAEDTAVYYCARGRVGYAFDYWGQGTLVTVSS
VL: DIVLTQPPSVSGAPGQRVTISCSGSSSNIGVNYVNWYQQLPGTAPKLLIYSNNQRPSGVPDRFSGSKSGTSASLAITGLQAEDEADYYCQSRASGFYSVVFGGGTKLTVLG
notes: as for B1
B4: CX2-Mab #4 (IgG1 format) (antibody, V domains shown)
VH: EVQLLESGGGLVQPGGSLRLSCAASGFTFSSNGMSWVRQAPGKGLEWVSAISSSGSKTYYADSVKGRFTISRDNSKNTLYLQMNSLRAEDTAVYYCARGYGFDVWGQGTLVTVSS
VL: DIVLTQPPSVSGAPGQRVTISCSGSSSNIGVNIVNWYQQLPGTAPKLLIYSTSNRPSGVPDRFSGSKSGTSASLAITGLQAEDEADYYCATRDGISKSVVFGGGTKLTVLG
notes: as for B1
B5: CX2-Mab #5 (IgG1 format) (antibody, V domains shown)
VH: EVQLLESGGGLVQPGGSLRLSCAASGFTFNSNAMSWVRQAPGKGLEWVSFISYSGSHTYYADSVKGRFTISRDNSKNTLYLQMNSLRAEDTAVYYCARYTRFLSRPAFDPWGQGTLVTVSS
VL: DIVLTQPPSVSGAPGQRVTISCTGSSSNIGAGYDVHWYQQLPGTAPKLLIYYNSKRPSGVPDRFSGSKSGTSASLAITGLQAEDEADYYCGAYDRKMNSYVFGGGTKLTVLG
notes: as for B2
B6: CX2-Mab #6 (IgG1 format) (antibody, V domains shown)
VH: EVQLLESGGGLVQPGGSLRLSCAASGFTFSSYTMSWVRQAPGKGLEWVSAIHSSGSSTYYADSVKGRFTISRDNSKNTLYLQMNSLRAEDTAVYYCARVPAYYGFDHWGQGTLVTVSS
VL: DIELTQPPSVSVSPGQTASITCSGDSLGAFYVHWYQQKPGQAPVLVIYRTNNRPSGIPERFSGSNSGNTATLTISGTQAEDEADYYCASYASRNRVFGGGTKLTVLG
notes: as for B2

Each binder was assayed against T1, human CXCR2 (assay: FACS, CXCR2 Flp-In CHO cells, IgG1).
Method: Human CXCR2-expressing Flp-In™ CHO cells were harvested at ˜80% confluence washed once with PBS (Gibco, Cat #14190-094) and detached using Versene (Invitrogen, Cat #15040-033). Subsequently, cells were counted and centrifuged at 250×g for 5 min at 4° C. Afterwards, cells were diluted in Superblock (Thermo Fisher Perbio Science, Cat #37515) to a cell concentration of 2E+05-1E+06/mL and 100 μL/well were transferred to 96-well microtiter plate (Nunc, Cat#163320). Cells were once centrifuged, supernatant discarded and antibodies added at 1 μg/mL (unless stated otherwise), incubated for 1 h at 4° C. and washed twice with FACS buffer (PBS/3% FCS/0.02% NaN3). Binding of anti-CXCR2 antibodies was detected by incubation of Phycoerythrin-conjugated anti-human IgG (Dianova, Cat #109-116-097) for 1 h at 4° C. Samples were subsequently measured using FACS Array (Becton Dickinson).
All six Fabs were converted into IgG1 format and were expressed in a human cell line and purified via protein A chromatography for further analysis. All antibodies were tested for specific CXCR2 binding on CXCR2-expressing CHO Flp-In™ cells by FACS. Additionally, inhibition of CXCR2 mediated beta-arrestin signaling by the antibodies was analyzed. Furthermore, IC₅₀ concentrations for cytotoxicity of respective antibodies via secondary immunotoxin in a Fab-ZAP assay using CXCR2 expressing CHO Flp-In™ cells were determined together with the capability of the antibodies to induce complement-dependent cellular cytotoxicity (CDC) and antibody-dependent cellular toxicity (ADCC). Respective experimental settings as outlined in Example 3 were used (data of one representative experiment are shown).
Binder B1 has an EC50 of 0.4 nM. In the case of B2, the EC50 is reported as greater than 667 nM. B3 gave an EC50 of 0.2 nM. For B4, the EC50 was 0.1 nM. Work on B5 yielded an EC50 of 17.7 nM. With B6 the EC50 was 0.1 nM.
